Reference: the DeepSol protein solubility set

Assay: soluble on expression in E. coli; label from the status in PepcDB or PDB records

Sequence | soluble on expression in E. coli
MSLKAFLPLLFSFFFIISCQQHKEATISPIDEEDELQEEADSLPRATAIFWLDKYHMKELKKDDVLTFRTAKAKVVIRNDGTIDLLSFVEQQPGNAQRYIRYRLKDFKVKKILMDNGYINPGEQYVQLRYIPALARRVKEGHHHHHH | soluble
MGHHHHHHSHMFVSDFRKEFYEVVQSQRVLLFVASDVDALCACKILQALFQCDHVQYTLVPVSGWQELETAFLEHKEQFHYFILINCGANVDLLDILQPDEDTIFFVCDTHRPVNVVNVYNDTQIKLLIKQDDDLEVPAYEDIFRDEEED | soluble
MSLSTHYHAHKPNVPIIMEDVFGWVREGNAFQVRVWLDDHEHDLNVGDDHAFSLLHWAAKGGHVAIAEMLLSRGARVNSTNMGDDTSLHLAAAHGHRQIVVKLLSRKADVNATNEHGMTPLHYACFWGYEQIAEDLISCGAAVNVCNKKGMTPLDVCQPMCKNTILEIAQEHGQSPNDRVPFKDTTWKGTKSRTRDATLSRYTGVDVSSLNLITKIAESHSGELWRGKWQGNDIVARILNVQEVTARISRDFQTEFPALRIFAHPNICAVLAAANQPPNLVIISQYMPFGSLYNVLHEQSSVVIDHGQAVRFALDIARGMSYLHSLDPMLLRFYLSSKHVVVDEELTAKLSMADTKFSFQEVGKAYSPAWMSPEALSRAPEDLNIRAADMWSFAILLWELNTREVPFSDLPPMECGMKIALEGLRVHIPPGIARNMNRLMNICMNEDPGRRPNFDQIIPILERMIL | not soluble
MNELLAEMAAVSSRRKQSKPRRMSGEGDAMMSPIDLSTKSFDENNCEKGAGGALPLEDRSNILPHFSVPFANPQQFLSLCAQLGNSSSRNVSSTASTTSSCPIQSCSQSFSSPAALTWHVLDAHEDEQEIFSCDVCTTTFSNGQDIREHKCQKTLASRSTSVPPSTIPSSVCFLSTPTTPCLQFSINESIGTSEIREEDEEEDMDVEDGEHVANQLFGHLLQKSDDKSKMASLFNHAFPPFAAFPNMPPPFLMRQPFDPRADVFAAGRHDNDDDWEALMEISTSDEAEKIRALVGDKAVPTTDPNQCILCRRVLSCKSALQMHYRTHTGERPFKCKICQRAFTTKGNLKTHMGVHRSKHSFRGLPISLPPQLAAMHQHQHQIAPPQRIHIHNPPTSAASAAAAVAQIQASQQCPICQQRFLNAGELAVHITEHRNSLTQPPRVMPTPTTTRVQTFPFVPFFTTPPSLNATDMSTQFNLANILSAQLKNDSSPNTDTSSVEEKITRDDPPKMASLSPSNSSDSSSSVRQDILESSEFEEKLKKLEEPPILEQQVSTTPNPKNENPLLAMQKMWAETEPPPPRQMPVLSKHQCGVCFKHFSSSSALQIHMRTHTGDKPFKCDMCGRAFTTRGNLKVHMGTHSWQQSPSRRGRRIFDVASSVTEKPMLQSPILPTSGAPGASPLAMLGPNGLSGLEMMMMLWRTVCSVCQKVCQSPNELEQHLKEHLNNGSSAAPTPLASAATPPPS | not soluble
MSLSFSTLMDKRERGSFDSQFLIAMPGLDDGNFARSVIYICAHSDAGAMGFIINRPQQITFTDILLHLKLVDSNDAIMLPNRTREFPIQCGGPVESGRGFVLHSDDYLSESSIPVSDDISLTATLDIVRAISNGRGPQKATMMLGYAGWGPGQLENEIANNGWLNCPAAEELIFDRGLDNKYERALALMGVDARMLSTDAGHAEGHHHHHH | not soluble
MSKSTRSRRKKKSKGGDRSERKTNKSERKKKGAKSDIGKKKKKNETVSKDQTNTGVSTGAEGVEKKEKEQWSGDETAKKLVASGAFNTSTITSGFKELSNPKPSADMCSIFKNNPKKSRAPDWPIADNKLIKLSHAPGNFICAAKVDVPEFNRTMIVTQIPDVTVSANIEDFWRMIFQEEIVSIVIAVMPLECSVTLQQLFPLLSGTFSNHGKMFLNNKKVDSAVAMTAYTLEVLPDGCSNSLLSTVYHLHNWKQKQGLENVGELVTTVEKVLKTNENTVLMSMNGIGRAGTMLTLFTSMLSVQKSKEVNPKEILIKLRGERSGLVENADQFNTVHRAMALWFKNKCSDEEVQKKVVEFAPNLTTEAVERSSYEYLNSQHFLYPILLESMLHQHQMKQVLLKKVERSMERSKL | not soluble
MKFEILQQLNAERAARRPAIVVTDTATGAQRLVKAADIAADPLAAELGKQLRMGKSASIEIDGRKLFLNVYAPTAKLVIVGAVHISQALAPLARSLGYDVTVVDPRTAFASPERFPDVPLIAEWPDVALPPLNIDHYTAFVALTHDPKIDDPALLHAFARDCFYIGALGSKKTHAKRLERLKGQGASDADLGRIHAPIGLAIGAVSPSEIAVSIMAEITAALRLPASSKAAAA | not soluble
